Experiment [1] deals with T1, human serum albumin (human, UniProt P02768 25-609).
T1 construct: also called HSA
Nature of the experiment: SPR (Biacore), HSA amine-coupled on CM5, pH 5. For orientation: SPR reads the build-up and loss of mass on a sensor chip optically.

In experiment [2] the target is T1, human serum albumin. As to the kind of experiment: SPR (Biacore), HSA amine-coupled on CM5, pH 7.
Experiment [3] concerns the target T1, human serum albumin. As to the kind of experiment: SPR (Biacore), ratio of the off rates at the two pH.
The target in experiment [4] is T2, human pIgR overexpressed in MDCK cells (human, UniProt P01833 19-764).
T2 construct: whole, on cells; also called hpIgR; human polymeric immunoglobulin receptor
Nature of the experiment: immunoprecipitation from cell lysates with His-tagged nanobodies on talon beads, blot with a-hSC.

For experiment [5], the target named is T3, ectodomain of human pIgR (R&D Systems Cat #2717-PG) (human, UniProt P01833 19-638).
T3 construct: extracellular domain; Immobilised on Maxisorp plates at 5 ug/ml; also called pIgR ectodomain
Nature of the experiment: competition ELISA, dilution series of purified Nanobody against 1 ug/ml IgA on immobilised pIgR ectodomain. For orientation: In an ELISA, binding on a coated surface is turned into a signal by an enzyme label.

In experiment [6] the target is T2, human pIgR overexpressed in MDCK cells. As to the kind of experiment: immunofluorescence on MDCK cells overexpressing human pIgR, 3 uM purified Nanobody at 4C, anti-myc detection.

T2 sequence (P01833 19-764): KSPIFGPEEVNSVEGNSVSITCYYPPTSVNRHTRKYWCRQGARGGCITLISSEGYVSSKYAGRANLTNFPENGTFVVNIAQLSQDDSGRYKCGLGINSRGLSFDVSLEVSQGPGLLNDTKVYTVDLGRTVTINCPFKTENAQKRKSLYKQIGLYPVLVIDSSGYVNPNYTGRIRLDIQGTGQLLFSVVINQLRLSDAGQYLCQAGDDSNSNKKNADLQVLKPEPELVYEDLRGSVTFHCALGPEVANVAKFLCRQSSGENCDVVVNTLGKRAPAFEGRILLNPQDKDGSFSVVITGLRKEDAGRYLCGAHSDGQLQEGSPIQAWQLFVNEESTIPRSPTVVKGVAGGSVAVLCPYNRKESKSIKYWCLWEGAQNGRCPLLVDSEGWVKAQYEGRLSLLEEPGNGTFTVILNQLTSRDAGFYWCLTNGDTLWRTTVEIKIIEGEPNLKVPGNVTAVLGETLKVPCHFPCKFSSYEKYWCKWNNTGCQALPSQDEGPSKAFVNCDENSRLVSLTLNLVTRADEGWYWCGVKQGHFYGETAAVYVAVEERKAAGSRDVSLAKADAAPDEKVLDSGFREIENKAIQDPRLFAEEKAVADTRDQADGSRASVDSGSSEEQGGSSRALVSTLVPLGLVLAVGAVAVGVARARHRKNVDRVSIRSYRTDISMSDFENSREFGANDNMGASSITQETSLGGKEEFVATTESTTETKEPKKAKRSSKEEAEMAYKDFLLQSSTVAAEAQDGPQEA
T3 sequence (P01833 19-638): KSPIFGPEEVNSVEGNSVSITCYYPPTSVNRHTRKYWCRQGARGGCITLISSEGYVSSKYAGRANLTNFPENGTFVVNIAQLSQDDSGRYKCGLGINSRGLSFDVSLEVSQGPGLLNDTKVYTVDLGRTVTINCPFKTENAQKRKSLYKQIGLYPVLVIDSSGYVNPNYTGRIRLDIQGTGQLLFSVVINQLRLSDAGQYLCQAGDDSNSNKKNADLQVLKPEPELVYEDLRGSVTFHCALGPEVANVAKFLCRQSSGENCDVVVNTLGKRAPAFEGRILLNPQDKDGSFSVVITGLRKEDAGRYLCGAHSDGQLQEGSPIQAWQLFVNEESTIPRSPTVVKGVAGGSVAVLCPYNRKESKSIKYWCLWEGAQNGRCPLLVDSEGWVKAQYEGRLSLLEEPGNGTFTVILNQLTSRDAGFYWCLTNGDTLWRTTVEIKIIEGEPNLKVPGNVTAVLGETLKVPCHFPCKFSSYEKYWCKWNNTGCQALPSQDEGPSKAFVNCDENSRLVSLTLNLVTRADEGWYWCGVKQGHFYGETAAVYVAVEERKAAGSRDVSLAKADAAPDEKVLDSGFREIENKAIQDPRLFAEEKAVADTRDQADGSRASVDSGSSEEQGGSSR

B1: 4D4 (VHH)
VHH: EVQLVESGGGLVQAGDSLRLSCAASGRTFSPYVMGWFRRAPGKEREFVGGINWSGSNTWYTDSVKGRFTISRDNVKNMVYLQMNSLKPEDTAVYYCAAGSGVGMYRYERQYDYWGQGTQVTVSS
notes: Tested as periplasmic extract
The koff is a measure of how fast the partners let go of each other. A high value points to fast dissociation. In the case of B1, the values for the koff in the experiment with human serum albumin [1] and with human serum albumin [2] were 0.0166 s⁻¹ and 0.00602 s⁻¹, respectively. Further, in the experiment with human serum albumin [3], the “Ratio pH 7/pH 5” value came out at 2.76.

B2: 4A9 (VHH)
VHH: EVQLVESGGGLVQAGGSLRLSCEASGFTLDYSGVGWFRQAPGKERELVSCISRGGDRAGYANSVKGRFTMSRDNAKNILYLQMNSLKPEDTAVYYCAATHSGSGCYDGAIDYWGKGTLVTVSS
notes: Tested as periplasmic extract
As to B2, the koff was 0.00701 s⁻¹ in the experiment with human serum albumin [1] and 0.013 s⁻¹ with human serum albumin [2]. Moreover, the “Ratio pH 7/pH 5” value with human serum albumin [3] amounted to 0.54.

B3: 4B7 (VHH)
VHH: EVQLVESGGGLVQAGGSLRLSCAASGFTFDDYAIGWFRQAPGKEREGVSCISSRDGITYYADSVKGRFTISSDNAKNTVYLQMNSLKPEDTAVYYCAADLVGSFPCPVAAYDYWGQGTQVTVSS
notes: Carries myc and His tags
On to B3, for which the binding result in experiment [4] is “binds”.

B4: 4B8 (VHH)
VHH: EVQLVESGGGLVQAGGSLRLSCAASGGTYSGNAMAWFRQAPGKEREFVAGIDWSSENTRYIDSVKGRFTISRDNAKNTMYLQMNSLKPEDTAVYYCAAGTSWGALASRLEAAYSSWGQGTQVTVSS
notes: Tested as periplasmic extract
B4: the koff with human serum albumin [1] was 0.0018 s⁻¹; with human serum albumin [2] it was 0.000741 s⁻¹. Besides, in the experiment with human serum albumin [3], the “Ratio pH 7/pH 5” value was found to be 2.43.

B5: 4B6 (VHH)
VHH: KVQLVESGGGLVQVGGSLRLSCVASGRTYGGNAMAWFRQAPGKEREFVAGIDWSSENTRYTDSVKGRFTISRDNAKNTMYLQMNSLKPEDTAVYYCAAGTSWGALASRLENAYSAWGQGTQVTVSS
notes: Tested as periplasmic extract
B5: the koff in the experiment with human serum albumin [1] came out at 0.00119 s⁻¹; with human serum albumin [2] it was 0.000368 s⁻¹. For the same molecule, the “Ratio pH 7/pH 5” value with human serum albumin [3] was 3.23.

B6: 4B5 (VHH)
VHH: EVQLVESGGGLVQAGDSLRLSCAASGRTYSRNAMAWFRQAPGKEREFVAGIDWSSENTRYIDSVKGRFTISRDNAKSTMYLQMNSLKPEDTAVYYCAAGTSWGALASRLEAAYSSWGQGTQVTVSS
notes: Tested as periplasmic extract
Turning to B6, the koff stood at 0.00403 s⁻¹ in the experiment with human serum albumin [1] and 0.00174 s⁻¹ in the experiment with human serum albumin [2]. Further, in the experiment with human serum albumin [3], the “Ratio pH 7/pH 5” value is 2.32.

B7: 4A2 (VHH)
VHH: EVQLVESGGGLVQAGGSLRLSCAASGLSFSSYAMGWFRQAPGKEREFVAAIRRREGNSYYADSVKGRFTISRDSAKNTVYLQMNSLKPEDTALYSCAATAPHYSGSFAYAGGYDYWGQGTQVTVSS
notes: Tested as periplasmic extract
As to B7, the koff in the experiment with human serum albumin [1] was 0.0227 s⁻¹; in the experiment with human serum albumin [2], 0.00642 s⁻¹. The “Ratio pH 7/pH 5” value with human serum albumin [3] came out at 3.54.

B8: 4A6 (VHH)
VHH: EVQLVESGGGLVQPGGSLRLSCAASPFTLDYYAIGWFRQAPGKEREGVSCSTSHGKTYHADSVKGRFTISRDNAKNTVYLQMNSLKPEDTAVYYCAAGACMGGSGYEADFGSWGQGTQVTVSS
notes: Tested as periplasmic extract
As for B8, the koff with human serum albumin [1] was 0.00999 s⁻¹; with human serum albumin [2] it was 0.00173 s⁻¹. Further, in the experiment with human serum albumin [3], the “Ratio pH 7/pH 5” value worked out at 5.77.

B9: 4B1 (VHH)
VHH: EVQLVESGGGLVQPGGSLRLSCVAAGFTLDYYAIGWFRQAPGKEREGVSCITSDGRTYYADSVKGRFTISRDMAKKMVYLQMNSLKPEDTAVYYCAAGACMGGSGYEADFGSWGQGTQVTVSS
notes: Tested as periplasmic extract
As to B9, the values for the koff with human serum albumin [1] and with human serum albumin [2] were 0.00773 s⁻¹ and 0.00875 s⁻¹, respectively. For the same molecule, the “Ratio pH 7/pH 5” value with human serum albumin [3] worked out at 0.88.

B10: 4C9 (VHH)
VHH: EVQLVESGGGLVQAGDSLRLSCTASERPFSTYVMGWFRRAPGKEREFVGGITWSGINAWYTDSVLGRFTISSDNAKNTVYLQMNSLKPEDTAVYYCAAASGVGRYRYELQYDYWGQGTQVTVSS
notes: Tested as periplasmic extract
Regarding B10, the figures for the koff with human serum albumin [1] and with human serum albumin [2] were 0.00171 s⁻¹ and 0.000441 s⁻¹, respectively. In the experiment with human serum albumin [3], the “Ratio pH 7/pH 5” value stood at 3.88.

B11: 1D2 (VHH)
VHH: EVQLVESGGGLVQPGGSLRLSCAASGFTLDYYAIGWFRRAPGKEREGVSCTSSSDGSTYYADSVKGRFTISRDNAKNTVYLQMNSLKPEDTAVYYCATTFGDACTVVAGIPDQYDFGSWGQGTQVTVSS
notes: Carries myc and His tags
With B11, the binding result in experiment [5] and in experiment [6] was “binds” each time.

B12: 4D9 (VHH)
VHH: EVQLVESGGGLVQPGGSLRLSCAASGFTLDYYDIGWFRQAPGKEREGVSCTSSSDGSTYYADSVKGRFTISRDNAKNTVYLQMNSLKPEDTAVYYCATTFGDACTVVAGIPDQYDFGSWGQGTQVTVSS
Consider B12, for which, in experiment [5], the binding result is given as “binds”.

B13: 4D3 (VHH)
VHH: EVQLVKSGGGLVQPGGSLRLSCAASGFTFSHYQMSWVRQAPGKDVEWVSSISMLGGGTTYADSVKGRFTISRDNAKSTLVLQMNNLKVEDTAVYYCARGFSGNYYRADLGQGTQVTVSS
notes: Tested as periplasmic extract
With B13, the koff in the experiment with human serum albumin [1] was determined as 0.0137 s⁻¹; with human serum albumin [2], 0.00565 s⁻¹. In the experiment with human serum albumin [3], the “Ratio pH 7/pH 5” value amounted to 2.42.

B14: 4C4 (VHH)
VHH: EVQLVESGGGLVQAGDSLRLSCAASGRPFMSYVMGWFRRAPGKEREFVGGINWGSGNTWYTDSVLGRFTISRDNAKNTVYLQMNSLKPEDTAVYYCATAAGVGYYRYERQYDYWGQGTQVTVSS
notes: Tested as periplasmic extract
For B14, the koff in the experiment with human serum albumin [1] turned out to be 0.00121 s⁻¹; with human serum albumin [2], 0.000499 s⁻¹. For the same molecule, the “Ratio pH 7/pH 5” value with human serum albumin [3] is 2.42.

B15: 4D10 (VHH)
VHH: EVQLVESGGGLVQAGDSLRLSCTASERPFMSYVMGWFRRAPGKDREFVGAITWSGINTWYSDSVLGRFTISRDNAKNTVYLQMNSLKPEDTAVYYCAVADGVGLYRYERQYDYWGQGTQVTVSS
notes: Tested as periplasmic extract
In the case of B15, the koff with human serum albumin [1] was found to be 0.00341 s⁻¹; with human serum albumin [2] it was 0.000523 s⁻¹. Moreover, the “Ratio pH 7/pH 5” value with human serum albumin [3] was determined as 6.52.

B16: 4D7 (VHH)
VHH: EVQLVESGGGLVQAGDSLRLSCAASGRPFSSYVMGWFRRAPGKEREFVGGINWNSGNTWYSDSVLGRFTISRDNAKNTVDLQMNSLKPEDTAVYYCATASGVGYYRYERQYDYWGQGTQVTVSS
notes: Tested as periplasmic extract
B16: the values for the koff with human serum albumin [1] and in the experiment with human serum albumin [2] were 0.00158 s⁻¹ and 0.000653 s⁻¹, respectively. Also, in the experiment with human serum albumin [3], the “Ratio pH 7/pH 5” value stood at 2.42.

B17: 4C5 (VHH)
VHH: EVQLVESGGGLVQAGDSLRLSCAASGRPFSAYVMGWFRRAPGKEREFVGGINWNSANTWYTDSVLGRFTISKDNAKNTVYLQMNSLKPEDTAVYYCAAAGGVGYYRYERQYDYWGQGTQVTVSS
notes: Tested as periplasmic extract
Consider B17, for which the koff with human serum albumin [1] amounted to 0.00132 s⁻¹; in the experiment with human serum albumin [2], 0.000541 s⁻¹. Besides, the “Ratio pH 7/pH 5” value with human serum albumin [3] came to 2.44.

B18: 4B11 (VHH)
VHH: EVQLVESGGGLVQPGGSLRLSCAASGFTLDYYAIGWFRQAPGKEREGVSCISSSDMSDGITYYADSVKGRFTSSRDNVKNTVYLQMNSLKPEDTAVYYCATTFGDACTVVAGIPDQADFDSWGQGTQVTVSS
notes: Carries myc and His tags
For B18, the binding result in experiment [5] and in experiment [6] was “binds” in each case.

B19: 4B10 (VHH)
VHH: EVQLVESGGGLVQAGDSLRLSCAASGRTFSSYAMGWFRQAPGTERQFVARITGKGDSTDYADSVRGRFTISRDNAKNTVYLQMNSLKPEDTAVYYCAADAFNSLLQAGRAEYWGQGTQVTVSS
notes: Tested as periplasmic extract
Turning to B19, the koff in the experiment with human serum albumin [1] came out at 0.0434 s⁻¹; with human serum albumin [2] it was 0.0499 s⁻¹. Besides, in the experiment with human serum albumin [3], the “Ratio pH 7/pH 5” value came out at 0.87.

B20: 4D5 (VHH)
VHH: EVQLVESGGGLVQAGGSLRLSCAASGLSFSKYAMGWFRQAPGKQREYVAVISSSDTTYYTNSAKGRFTISRDNAENTVYLQMNSLKPEDTAVYFCAADSYVTALQTLTQISYWGQGTQVTVSS
notes: Tested as periplasmic extract
For the molecule B20, the results for the koff with human serum albumin [1] and with human serum albumin [2] were 0.0263 s⁻¹ and 0.0204 s⁻¹, respectively. For the same molecule, the “Ratio pH 7/pH 5” value with human serum albumin [3] was 1.29.

B21: 4C11 (albumin binder) (VHH)
VHH: EVQLVESGGGLVQAGGSLRLSCAASGLSFSRYAMGWFRQAPGKQREYVAVISSSDTTYYTNSAKGRFTISRDNAENTVYLQMNSLKPEDTAVYFCAADSFVTALQTLTQINYWGQGTQVTVSS
notes: Tested as periplasmic extract
On to B21, for which the koff came to 0.0312 s⁻¹ with human serum albumin [1] and 0.0263 s⁻¹ with human serum albumin [2]. In addition, in the experiment with human serum albumin [3], the “Ratio pH 7/pH 5” value worked out at 1.19.

B22: 1E7 (VHH)
VHH: EVQLVESGGGLVQAGGSLRLSCAASGRTFSNYVMGWFRQAPGKEREFVAAISWSGVTTYHYSADSVKGRFTTSRDNDRNTAHLQMNSLKPEDTAVYYCAARGRTGSDPRKGDDYDYWGQGTQVTVSS
notes: Carries a myc tag (detected with anti-myc)
For the molecule B22, the binding result in experiment [5] and in experiment [6] was “binds” throughout.

B23: 4C8 (VHH)
VHH: EVQLVESGGGLVQAGDSLRLSCAASGRTYTPYVMGWFRRAPGKEREFVGAVSWSGTNTWYTDSVKGRFTISRDNAKNTVYLQMNSLKPEDTAVYYCAAGDGVGIYRYEHQYDYWGQGTQVTVSS
notes: Tested as periplasmic extract
B23: the koff with human serum albumin [1] was 0.00209 s⁻¹; with human serum albumin [2], 0.000624 s⁻¹. Also, the “Ratio pH 7/pH 5” value in the experiment with human serum albumin [3] came to 3.35.

B24: 4C3 (VHH)
VHH: EVQLVESGGGLVQAGGSLRLSCAASGRTFSSYAMAWFRQAPGEEREFVATISVSGGYTYYADSVKGRFTISRDNAKNTVYLQMNTLKPEDTAVYYCAAGDSSSWLEHMYDYWGQGTQVTVSS
notes: Tested as periplasmic extract
On to B24, for which the koff in the experiment with human serum albumin [1] turned out to be 0.00375 s⁻¹; in the experiment with human serum albumin [2], 0.00112 s⁻¹. Besides, the “Ratio pH 7/pH 5” value in the experiment with human serum albumin [3] was determined as 3.35.

Source of the values: patent publication US20100166734A1 (published 2010).
